In paper PMC6694467:

Target: monomeric PKG Iβ that lacks the dimerization domain
Assay: crystal structure; PKG Iβ holoenzyme lacking the dimerization domain, 2.3 Å; inhibited state

stoichiometry N: 2
Substance: monomeric PKG Iβ that lacks the dimerization domain (domain or fragment)
